Source: patent US20150299281A1 (ZEALAND PHARMA A S, published 2015)
Square brackets hold non-standard residues; d marks the D form. Aib = CC(C)(N)C(=O)O

Legend:
human GIP receptor = target: T1, human GIP receptor (human, UniProt P48546 22-466); experiment: cell-based or functional assay
T1 sequence (looked up): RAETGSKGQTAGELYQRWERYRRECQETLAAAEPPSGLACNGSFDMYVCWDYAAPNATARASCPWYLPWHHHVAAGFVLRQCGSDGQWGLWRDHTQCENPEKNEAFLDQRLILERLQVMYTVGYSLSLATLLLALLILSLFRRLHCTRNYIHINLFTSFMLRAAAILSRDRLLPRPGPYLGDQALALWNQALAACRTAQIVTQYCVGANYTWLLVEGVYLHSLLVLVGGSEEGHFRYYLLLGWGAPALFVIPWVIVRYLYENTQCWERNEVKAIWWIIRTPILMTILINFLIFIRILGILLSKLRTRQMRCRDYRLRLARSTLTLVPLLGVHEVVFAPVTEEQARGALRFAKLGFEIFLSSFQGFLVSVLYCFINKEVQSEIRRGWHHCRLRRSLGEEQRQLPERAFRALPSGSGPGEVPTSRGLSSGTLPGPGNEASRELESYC

human GLP-1 receptor = human GLP-1 receptor (human, UniProt P43220 24-463); experiment: cell-based or functional assay

B1: Compound 2 (peptide)
peptide: H-Y[Aib]EGTFTSDYSI[Aib]LDKKAQRAFVEWLLAQGPSSGAPPPS-NH2
SMILES: CC[C@H](C)[C@H](NC(=O)[C@H](CO)NC(=O)[C@H](Cc1ccc(O)cc1)NC(=O)[C@H](CC(=O)O)NC(=O)[C@H](CO)NC(=O)[C@@H](NC(=O)[C@H](Cc1ccccc1)NC(=O)[C@@H](NC(=O)CNC(=O)[C@H](CCC(=O)O)NC(=O)C(C)(C)NC(=O)[C@@H](N)Cc1ccc(O)cc1)[C@@H](C)O)[C@@H](C)O)C(=O)NC(C)(C)C(=O)N[C@@H](CC(C)C)C(=O)N[C@@H](CC(=O)O)C(=O)N[C@@H](CCCCN)C(=O)N[C@@H](CCCCN)C(=O)N[C@@H](C)C(=O)N[C@@H](CCC(N)=O)C(=O)N[C@@H](CCCNC(=N)N)C(=O)N[C@@H](C)C(=O)N[C@@H](Cc1ccccc1)C(=O)N[C@H](C(=O)N[C@@H](CCC(=O)O)C(=O)N[C@@H](Cc1c[nH]c2ccccc12)C(=O)N[C@@H](CC(C)C)C(=O)N[C@@H](CC(C)C)C(=O)N[C@@H](C)C(=O)N[C@@H](CCC(N)=O)C(=O)NCC(=O)N1CCC[C@H]1C(=O)N[C@@H](CO)C(=O)N[C@@H](CO)C(=O)NCC(=O)N[C@@H](C)C(=O)N1CCC[C@H]1C(=O)N1CCC[C@H]1C(=O)N1CCC[C@H]1C(=O)N[C@@H](CO)C(N)=O)C(C)C
Q: For B1, which “EC50, cAMP induction in HEK293 cells expressing human GIP R” value (human GIP receptor) is on record?
A: The value was 6.8 pM.

Q: And the “EC50, cAMP induction in HEK293 cells expressing human GLP-1 R” value (human GLP-1 receptor)?
A: Its value is 15 pM.

B2: Compound 8 (peptide)
peptide: H-Y[Aib]EGTFSSDYSIYLDKKAQRAFVNWLLA[Aib]K-NH2
SMILES: CC[C@H](C)[C@H](NC(=O)[C@H](CO)NC(=O)[C@H](Cc1ccc(O)cc1)NC(=O)[C@H](CC(=O)O)NC(=O)[C@H](CO)NC(=O)[C@H](CO)NC(=O)[C@H](Cc1ccccc1)NC(=O)[C@@H](NC(=O)CNC(=O)[C@H](CCC(=O)O)NC(=O)C(C)(C)NC(=O)[C@@H](N)Cc1ccc(O)cc1)[C@@H](C)O)C(=O)N[C@@H](Cc1ccc(O)cc1)C(=O)N[C@@H](CC(C)C)C(=O)N[C@@H](CC(=O)O)C(=O)N[C@@H](CCCCN)C(=O)N[C@@H](CCCCN)C(=O)N[C@@H](C)C(=O)N[C@@H](CCC(N)=O)C(=O)N[C@@H](CCCNC(=N)N)C(=O)N[C@@H](C)C(=O)N[C@@H](Cc1ccccc1)C(=O)N[C@H](C(=O)N[C@@H](CC(N)=O)C(=O)N[C@@H](Cc1c[nH]c2ccccc12)C(=O)N[C@@H](CC(C)C)C(=O)N[C@@H](CC(C)C)C(=O)N[C@@H](C)C(=O)NC(C)(C)C(=O)N[C@@H](CCCCN)C(N)=O)C(C)C
Q: B2 was tested. Which “EC50, cAMP induction in HEK293 cells expressing human GIP R” value (human GIP receptor) did it give?
A: Its value is 100 pM.

Q: What about the “EC50, cAMP induction in HEK293 cells expressing human GLP-1 R” value (human GLP-1 receptor) of the same binder?
A: The value was 29 pM.

B3: Compound 13 (peptide)
peptide: H-Y[Aib]EGTFTSDYSIYSDKKAQRAFVNWLLA[Aib]K-NH2
SMILES: CC[C@H](C)[C@H](NC(=O)[C@H](CO)NC(=O)[C@H](Cc1ccc(O)cc1)NC(=O)[C@H](CC(=O)O)NC(=O)[C@H](CO)NC(=O)[C@@H](NC(=O)[C@H](Cc1ccccc1)NC(=O)[C@@H](NC(=O)CNC(=O)[C@H](CCC(=O)O)NC(=O)C(C)(C)NC(=O)[C@@H](N)Cc1ccc(O)cc1)[C@@H](C)O)[C@@H](C)O)C(=O)N[C@@H](Cc1ccc(O)cc1)C(=O)N[C@@H](CO)C(=O)N[C@@H](CC(=O)O)C(=O)N[C@@H](CCCCN)C(=O)N[C@@H](CCCCN)C(=O)N[C@@H](C)C(=O)N[C@@H](CCC(N)=O)C(=O)N[C@@H](CCCNC(=N)N)C(=O)N[C@@H](C)C(=O)N[C@@H](Cc1ccccc1)C(=O)N[C@H](C(=O)N[C@@H](CC(N)=O)C(=O)N[C@@H](Cc1c[nH]c2ccccc12)C(=O)N[C@@H](CC(C)C)C(=O)N[C@@H](CC(C)C)C(=O)N[C@@H](C)C(=O)NC(C)(C)C(=O)N[C@@H](CCCCN)C(N)=O)C(C)C
Q: For B3, which “EC50, cAMP induction in HEK293 cells expressing human GIP R” value (human GIP receptor) is on record?
A: Its value is 140 pM.

Q: And the “EC50, cAMP induction in HEK293 cells expressing human GLP-1 R” value (human GLP-1 receptor)?
A: The value was 32 pM.

B4: Compound 15 (peptide)
peptide: H-Y[Aib]EGTFTSDYSIALEKKAQRAFVNWLLA[Aib]K-NH2
SMILES: CC[C@H](C)[C@H](NC(=O)[C@H](CO)NC(=O)[C@H](Cc1ccc(O)cc1)NC(=O)[C@H](CC(=O)O)NC(=O)[C@H](CO)NC(=O)[C@@H](NC(=O)[C@H](Cc1ccccc1)NC(=O)[C@@H](NC(=O)CNC(=O)[C@H](CCC(=O)O)NC(=O)C(C)(C)NC(=O)[C@@H](N)Cc1ccc(O)cc1)[C@@H](C)O)[C@@H](C)O)C(=O)N[C@@H](C)C(=O)N[C@@H](CC(C)C)C(=O)N[C@@H](CCC(=O)O)C(=O)N[C@@H](CCCCN)C(=O)N[C@@H](CCCCN)C(=O)N[C@@H](C)C(=O)N[C@@H](CCC(N)=O)C(=O)N[C@@H](CCCNC(=N)N)C(=O)N[C@@H](C)C(=O)N[C@@H](Cc1ccccc1)C(=O)N[C@H](C(=O)N[C@@H](CC(N)=O)C(=O)N[C@@H](Cc1c[nH]c2ccccc12)C(=O)N[C@@H](CC(C)C)C(=O)N[C@@H](CC(C)C)C(=O)N[C@@H](C)C(=O)NC(C)(C)C(=O)N[C@@H](CCCCN)C(N)=O)C(C)C
Q: What does the source list for B4?
A: EC50, cAMP induction in HEK293 cells expressing human GIP R (human GIP receptor): 60 pM; EC50, cAMP induction in HEK293 cells expressing human GLP-1 R (human GLP-1 receptor): 10 pM

B5: Compound 11 (peptide)
peptide: H-Y[Aib]EGTFTSDYLIYLDKKAQRAFVNWLLA[Aib]K-NH2
SMILES: CC[C@H](C)[C@H](NC(=O)[C@H](CC(C)C)NC(=O)[C@H](Cc1ccc(O)cc1)NC(=O)[C@H](CC(=O)O)NC(=O)[C@H](CO)NC(=O)[C@@H](NC(=O)[C@H](Cc1ccccc1)NC(=O)[C@@H](NC(=O)CNC(=O)[C@H](CCC(=O)O)NC(=O)C(C)(C)NC(=O)[C@@H](N)Cc1ccc(O)cc1)[C@@H](C)O)[C@@H](C)O)C(=O)N[C@@H](Cc1ccc(O)cc1)C(=O)N[C@@H](CC(C)C)C(=O)N[C@@H](CC(=O)O)C(=O)N[C@@H](CCCCN)C(=O)N[C@@H](CCCCN)C(=O)N[C@@H](C)C(=O)N[C@@H](CCC(N)=O)C(=O)N[C@@H](CCCNC(=N)N)C(=O)N[C@@H](C)C(=O)N[C@@H](Cc1ccccc1)C(=O)N[C@H](C(=O)N[C@@H](CC(N)=O)C(=O)N[C@@H](Cc1c[nH]c2ccccc12)C(=O)N[C@@H](CC(C)C)C(=O)N[C@@H](CC(C)C)C(=O)N[C@@H](C)C(=O)NC(C)(C)C(=O)N[C@@H](CCCCN)C(N)=O)C(C)C
Q: Which “EC50, cAMP induction in HEK293 cells expressing human GIP R” value (human GIP receptor) does the source give for B5 here?
A: The value was 760 pM.

Q: What about the “EC50, cAMP induction in HEK293 cells expressing human GLP-1 R” value (human GLP-1 receptor) of the same binder?
A: Its value is 470 pM.

B6: Compound 16 (peptide)
peptide: H-Y[Aib]EGTFTSDYSIYLDSKAQRAFVNWLLA[Aib]K-NH2
SMILES: CC[C@H](C)[C@H](NC(=O)[C@H](CO)NC(=O)[C@H](Cc1ccc(O)cc1)NC(=O)[C@H](CC(=O)O)NC(=O)[C@H](CO)NC(=O)[C@@H](NC(=O)[C@H](Cc1ccccc1)NC(=O)[C@@H](NC(=O)CNC(=O)[C@H](CCC(=O)O)NC(=O)C(C)(C)NC(=O)[C@@H](N)Cc1ccc(O)cc1)[C@@H](C)O)[C@@H](C)O)C(=O)N[C@@H](Cc1ccc(O)cc1)C(=O)N[C@@H](CC(C)C)C(=O)N[C@@H](CC(=O)O)C(=O)N[C@@H](CO)C(=O)N[C@@H](CCCCN)C(=O)N[C@@H](C)C(=O)N[C@@H](CCC(N)=O)C(=O)N[C@@H](CCCNC(=N)N)C(=O)N[C@@H](C)C(=O)N[C@@H](Cc1ccccc1)C(=O)N[C@H](C(=O)N[C@@H](CC(N)=O)C(=O)N[C@@H](Cc1c[nH]c2ccccc12)C(=O)N[C@@H](CC(C)C)C(=O)N[C@@H](CC(C)C)C(=O)N[C@@H](C)C(=O)NC(C)(C)C(=O)N[C@@H](CCCCN)C(N)=O)C(C)C
Q: B6 was tested. Which “EC50, cAMP induction in HEK293 cells expressing human GIP R” value (human GIP receptor) did it give?
A: The value was 53 pM.

Q: And the “EC50, cAMP induction in HEK293 cells expressing human GLP-1 R” value (human GLP-1 receptor)?
A: The value was 12 pM.

B7: Compound 12 (peptide)
peptide: H-Y[Aib]EGTFTSDYSIALDKKAQRAFVNWLLA[Aib]K-NH2
SMILES: CC[C@H](C)[C@H](NC(=O)[C@H](CO)NC(=O)[C@H](Cc1ccc(O)cc1)NC(=O)[C@H](CC(=O)O)NC(=O)[C@H](CO)NC(=O)[C@@H](NC(=O)[C@H](Cc1ccccc1)NC(=O)[C@@H](NC(=O)CNC(=O)[C@H](CCC(=O)O)NC(=O)C(C)(C)NC(=O)[C@@H](N)Cc1ccc(O)cc1)[C@@H](C)O)[C@@H](C)O)C(=O)N[C@@H](C)C(=O)N[C@@H](CC(C)C)C(=O)N[C@@H](CC(=O)O)C(=O)N[C@@H](CCCCN)C(=O)N[C@@H](CCCCN)C(=O)N[C@@H](C)C(=O)N[C@@H](CCC(N)=O)C(=O)N[C@@H](CCCNC(=N)N)C(=O)N[C@@H](C)C(=O)N[C@@H](Cc1ccccc1)C(=O)N[C@H](C(=O)N[C@@H](CC(N)=O)C(=O)N[C@@H](Cc1c[nH]c2ccccc12)C(=O)N[C@@H](CC(C)C)C(=O)N[C@@H](CC(C)C)C(=O)N[C@@H](C)C(=O)NC(C)(C)C(=O)N[C@@H](CCCCN)C(N)=O)C(C)C
Q: Which results are given for B7?
A: EC50, cAMP induction in HEK293 cells expressing human GIP R (human GIP receptor): 50 pM; EC50, cAMP induction in HEK293 cells expressing human GLP-1 R (human GLP-1 receptor): 10 pM

B8: Compound 14 (peptide)
peptide: H-Y[Aib]EGTFTSDYSIYLEKKAQRAFVNWLLA[Aib]K-NH2
SMILES: CC[C@H](C)[C@H](NC(=O)[C@H](CO)NC(=O)[C@H](Cc1ccc(O)cc1)NC(=O)[C@H](CC(=O)O)NC(=O)[C@H](CO)NC(=O)[C@@H](NC(=O)[C@H](Cc1ccccc1)NC(=O)[C@@H](NC(=O)CNC(=O)[C@H](CCC(=O)O)NC(=O)C(C)(C)NC(=O)[C@@H](N)Cc1ccc(O)cc1)[C@@H](C)O)[C@@H](C)O)C(=O)N[C@@H](Cc1ccc(O)cc1)C(=O)N[C@@H](CC(C)C)C(=O)N[C@@H](CCC(=O)O)C(=O)N[C@@H](CCCCN)C(=O)N[C@@H](CCCCN)C(=O)N[C@@H](C)C(=O)N[C@@H](CCC(N)=O)C(=O)N[C@@H](CCCNC(=N)N)C(=O)N[C@@H](C)C(=O)N[C@@H](Cc1ccccc1)C(=O)N[C@H](C(=O)N[C@@H](CC(N)=O)C(=O)N[C@@H](Cc1c[nH]c2ccccc12)C(=O)N[C@@H](CC(C)C)C(=O)N[C@@H](CC(C)C)C(=O)N[C@@H](C)C(=O)NC(C)(C)C(=O)N[C@@H](CCCCN)C(N)=O)C(C)C
Q: With B8 as the binder, how does the “EC50, cAMP induction in HEK293 cells expressing human GIP R” value (human GIP receptor) read?
A: Its value is 36 pM.

Q: And the “EC50, cAMP induction in HEK293 cells expressing human GLP-1 R” value (human GLP-1 receptor)?
A: Its value is 8.7 pM.
